Measurements reported in publication PMC6802964.

Tests used:
Test in all cases: other fluorescence titration; change of the CyPet-YPet FRET signal of the IQ-FRET protein (1 µM by the methods, 0.5 µM by the legend) with varying concentrations of Cam1 or Cam2; 140 mM KCl, 20 mM MOPS pH 7.0, with or without 2 mM MgCl2, 2 mM EGTA (absence of calcium)
[1] = target: T1, CyPet–Myo1^IQ12–YPet FRET reporter protein (S. pombe)
T1 sequence (Q9Y7Z8 whole entry, looked up): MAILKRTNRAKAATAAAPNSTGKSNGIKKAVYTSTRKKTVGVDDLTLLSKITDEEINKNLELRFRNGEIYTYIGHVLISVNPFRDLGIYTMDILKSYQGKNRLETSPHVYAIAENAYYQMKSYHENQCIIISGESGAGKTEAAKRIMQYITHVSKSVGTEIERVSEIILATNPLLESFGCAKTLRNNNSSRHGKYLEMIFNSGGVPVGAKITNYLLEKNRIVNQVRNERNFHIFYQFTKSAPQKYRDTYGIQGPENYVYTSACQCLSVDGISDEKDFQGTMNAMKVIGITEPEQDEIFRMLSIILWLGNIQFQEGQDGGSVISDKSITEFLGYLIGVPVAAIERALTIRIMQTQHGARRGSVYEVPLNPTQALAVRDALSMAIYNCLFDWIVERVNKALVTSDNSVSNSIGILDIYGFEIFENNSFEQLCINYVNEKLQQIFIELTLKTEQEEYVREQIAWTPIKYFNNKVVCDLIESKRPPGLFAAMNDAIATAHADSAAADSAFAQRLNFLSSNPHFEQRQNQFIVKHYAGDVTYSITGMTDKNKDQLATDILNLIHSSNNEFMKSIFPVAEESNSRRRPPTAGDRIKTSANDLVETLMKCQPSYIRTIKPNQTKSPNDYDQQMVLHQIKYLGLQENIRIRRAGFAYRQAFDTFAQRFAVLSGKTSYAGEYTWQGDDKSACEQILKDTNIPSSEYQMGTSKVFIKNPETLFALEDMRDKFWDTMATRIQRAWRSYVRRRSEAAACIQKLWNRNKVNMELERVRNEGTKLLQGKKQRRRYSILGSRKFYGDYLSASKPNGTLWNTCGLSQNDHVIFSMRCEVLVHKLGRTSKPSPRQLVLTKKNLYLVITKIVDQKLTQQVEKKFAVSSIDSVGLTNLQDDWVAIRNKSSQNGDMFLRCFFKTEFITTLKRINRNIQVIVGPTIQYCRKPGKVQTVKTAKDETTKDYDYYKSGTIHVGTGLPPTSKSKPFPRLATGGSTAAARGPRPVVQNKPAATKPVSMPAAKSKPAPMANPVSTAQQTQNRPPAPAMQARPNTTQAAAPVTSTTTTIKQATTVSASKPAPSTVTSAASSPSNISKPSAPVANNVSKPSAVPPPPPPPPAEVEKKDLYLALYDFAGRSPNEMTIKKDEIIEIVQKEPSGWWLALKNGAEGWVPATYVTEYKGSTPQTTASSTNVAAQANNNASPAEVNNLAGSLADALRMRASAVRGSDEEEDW

[2] = target: T2, CyPet–Myo1^IQ1–YPet FRET reporter protein (S. pombe)
T2 sequence (Q9Y7Z8 whole entry, looked up): T1 sequence (Q9Y7Z8 whole entry, looked up)

[3] = target: CyPet–Myo1^IQ12S742D–YPet FRET reporter protein (S742D phosphomimetic) (S. pombe)

B1: Cam2 (calcium-insensitive calmodulin-like protein) (natural protein)
chain: MPASKEQTDEMKEAFVLYDIDKDGLIPTSHVGSVLRSLGINVTDAELAKLSNELGDAIDEKKFMSFVSNKLRETESEEEYIKAFRVFDKDNSGYIETAKFADYMKTLGEKLSDNEVQLMVQEADPTNSGSFDYYDFVQRIMAK
[1]
  KD of the binding event that gives 70% of the signal change: 1100 nM
  stoichiometry N: 2
[2]
  Kd: 400 nM
[3]
  drop in interaction against wild type Myo1^IQ12–FRET: 50%
